Experiment [1] has as its target Myc-tagged Rhinolophus affinis ISG15 S77C (Rhinolophus affinis). The experiment is described as follows: cross-linking.
The target of experiment [2] is Myc-tagged wild-type Mops condylurus ISG15 (Mops condylurus). Nature of the experiment: cross-linking.

Take “Myc-tagged Rhinolophus affinis ISG15 S77C (natural protein)”: in experiment [1], the stoichiometry N was determined as 2.
In experiment [2], “Myc-tagged wild-type Mops condylurus ISG15 (natural protein)” displayed a stoichiometry N of 2.

The values are drawn from PMC11821529.
